# Assay results as given in US7183387 (Genentech, dated 2007).
# T1: human FcγRIIA-R131 α subunit extracellular domain-His6-GST fusion (human, UniProt P12318 34-217)
# T1 construct: ECD-6His-GST fusion made in 293 cells; also called FcγRIIA-Arg131; not shown: glutathione S transferase (GST)
# T1 sequence: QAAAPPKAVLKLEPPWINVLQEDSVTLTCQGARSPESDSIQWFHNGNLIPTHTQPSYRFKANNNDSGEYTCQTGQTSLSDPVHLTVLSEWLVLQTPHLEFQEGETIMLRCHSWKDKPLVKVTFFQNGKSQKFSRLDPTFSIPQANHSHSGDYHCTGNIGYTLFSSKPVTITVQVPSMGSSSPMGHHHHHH
# B1: anti-IgE E27 IgG1 variant K334(353)A (antibody)
# heavy: not shown
# light: DIQLTQSPSSLSASVGDRVTITCRASKPVDGEGDSYLNWYQQKPGKAPKLLIYAASYLESGVPSRFSGSGSGTDFTLTISSLQPEDFATYYCQQSHEDPYTFGQGTKVEIKRTVAAPSVFIFPPSDEQLKSGTASVVCLLNNFYPREAKVQWKVDNALQSGNSQESVTEQDSKDSTYSLSSTLTLSKADYEKHKVYACEVTHQGLSSPVTKSFNRGEC
# notes: Fc variant of E27; also called IG2 55; G55
# B2: anti-IgE E27 IgG1 variant K290(307)Q (antibody)
# heavy: not shown
# light: B1 light
# notes: Fc variant of E27; also called IG2 73
# B3: anti-IgE E27 IgG1 variant S298(317)A (antibody)
# heavy: not shown
# light: B1 light
# notes: Fc variant of E27; also called IG2 36; G36
# B4: anti-IgE E27 IgG1 variant E333(352)N (antibody)
# heavy: not shown
# light: B1 light
# notes: Fc variant of E27; also called Glu333Asn
# B5: anti-IgE E27 IgG1 variant E333(352)R (antibody)
# heavy: not shown
# light: B1 light
# notes: Fc variant of E27
# B6: anti-IgE E27 IgG1 variant K290(307)R (antibody)
# heavy: not shown
# light: B1 light
# notes: Fc variant of E27; also called IG2 78
# B7: anti-IgE E27 IgG1 variant K334(353)S (antibody)
# heavy: not shown
# light: B1 light
# notes: Fc variant of E27
# B8: anti-IgE E27 IgG1 variant K290(307)E (antibody)
# heavy: not shown
# light: B1 light
# notes: Fc variant of E27; also called IG2 77
# B9: anti-IgE E27 IgG1 variant K334(353)W (antibody)
# heavy: not shown
# light: B1 light
# notes: Fc variant of E27
# B10: anti-IgE E27 IgG1 variant K334(353)N (antibody)
# heavy: not shown
# light: B1 light
# notes: Fc variant of E27
# B11: anti-IgE E27 IgG1 variant K334(353)L (antibody)
# heavy: not shown
# light: B1 light
# notes: Fc variant of E27; also called IG2 221
# B12: anti-IgE E27 IgG1 variant E333(352)A (antibody)
# heavy: not shown
# light: B1 light
# notes: Fc variant of E27; also called IG2 54; G54
# B13: anti-IgE E27 IgG1 variant K290(307)G (antibody)
# heavy: not shown
# light: B1 light
# notes: Fc variant of E27; also called IG2 177
# B14: anti-IgE E27 IgG1 variant P331(350)A (antibody)
# heavy: not shown
# light: B1 light
# notes: Fc variant of E27; also called IG2 65; Pro331Ala
# B15: anti-IgE E27 IgG1 variant K290(307)S (antibody)
# heavy: not shown
# light: B1 light
# notes: Fc variant of E27; also called IG2 75
# B16: anti-IgE E27 IgG1 variant K334(353)Y (antibody)
# heavy: not shown
# light: B1 light
# notes: Fc variant of E27
# B17: anti-IgE E27 IgG1 variant K334(353)E (antibody)
# heavy: not shown
# light: B1 light
# notes: Fc variant of E27
# B18: anti-IgE E27 IgG1 variant K334(353)Q (antibody)
# heavy: not shown
# light: B1 light
# notes: Fc variant of E27
# B19: anti-IgE E27 IgG1 variant K334(353)V (antibody)
# heavy: not shown
# light: B1 light
# notes: Fc variant of E27; also called IG2 220
# B20: anti-IgE E27 IgG1 variant E293(310)Q (antibody)
# heavy: not shown
# light: B1 light
# notes: Fc variant of E27
# B21: anti-IgE E27 IgG1 variant K334(353)M (antibody)
# heavy: not shown
# light: B1 light
# notes: Fc variant of E27; also called IG2 190
# B22: anti-IgE E27 IgG1 variant K290(307)A (antibody)
# heavy: not shown
# light: B1 light
# notes: Fc variant of E27; also called IG2 30; G30
# B23: anti-IgE E27 IgG1 variant K334(353)G (antibody)
# heavy: not shown
# light: B1 light
# notes: Fc variant of E27; also called IG2 179
# B24: anti-IgE E27 IgG1 variant S298(317)G (antibody)
# heavy: not shown
# light: B1 light
# notes: Fc variant of E27; also called IG2 70
# B25: anti-IgE E27 IgG1 variant K334(353)H (antibody)
# heavy: not shown
# light: B1 light
# notes: Fc variant of E27
# B26: anti-IgE E27 IgG1 variant E333(352)Q (antibody)
# heavy: not shown
# light: B1 light
# notes: Fc variant of E27
# B27: anti-IgE E27 IgG1 variant E333(352)S (antibody)
# heavy: not shown
# light: B1 light
# notes: Fc variant of E27; also called IG2 143
# B28: anti-IgE E27 IgG1 variant E333(352)K (antibody)
# heavy: not shown
# light: B1 light
# notes: Fc variant of E27
# B29: anti-IgE E27 IgG1 variant E333(352)D (antibody)
# heavy: not shown
# light: B1 light
# notes: Fc variant of E27; also called Glu333Asp
# B30: anti-IgE E27 IgG1 variant S298(317)V (antibody)
# heavy: not shown
# light: B1 light
# notes: Fc variant of E27; also called IG2 218
# Target: T1, human FcγRIIA-R131 α subunit …
# Test: ELISA, IgG complex, receptor coated
row,Binder,"ratio of binding, variant/native IgG1 (mean)"
1,B1,1.01 ratio
2,B2,1.17 ratio
3,B3,0.4 ratio
4,B4,0.59 ratio
5,B5,0.75 ratio
6,B6,1.05 ratio
7,B7,1.01 ratio
8,B8,1.1 ratio
9,B9,0.94 ratio
10,B10,1.16 ratio
11,B11,1.05 ratio
12,B12,0.92 ratio
13,B13,1.07 ratio
14,B14,1.29 ratio
15,B15,1.27 ratio
16,B16,1.08 ratio
17,B17,0.74 ratio
18,B18,1.08 ratio
19,B19,1.13 ratio
20,B20,0.85 ratio
21,B21,1.06 ratio
22,B22,1.29 ratio
23,B23,0.76 ratio
24,B24,0.87 ratio
25,B25,1.09 ratio
26,B26,0.7 ratio

# Target: T2, human FcγRIIIA-F158 α subunit extracellular domain-His6-GST fusion (human, UniProt P08637 17-208)
# T2 construct: ECD-6His-GST fusion made in 293 cells; also called FcγRIIIA-Phe158; not shown: glutathione S transferase (GST)
# T2 sequence (P08637 other isoform, or with tags, fused parts or gaps, form in doubt): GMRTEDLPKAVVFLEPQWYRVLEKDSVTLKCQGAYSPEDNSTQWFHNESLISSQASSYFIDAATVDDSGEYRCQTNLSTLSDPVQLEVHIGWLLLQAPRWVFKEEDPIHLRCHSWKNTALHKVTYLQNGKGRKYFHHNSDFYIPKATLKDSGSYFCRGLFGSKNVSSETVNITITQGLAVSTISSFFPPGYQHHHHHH
# Test: ELISA, IgG complex, receptor coated
row,Binder,"ratio of binding, variant/native IgG1 (mean)"
1,B1,1.39 ratio
2,B27,0.94 ratio
3,B2,1.4 ratio
4,B28,0.85 ratio
5,B3,1.3 ratio
6,B4,0.56 ratio
7,B5,0.84 ratio
8,B6,1.08 ratio
9,B7,1.19 ratio
10,B8,1.3 ratio
11,B9,1.07 ratio
12,B10,1.15 ratio
13,B29,1.26 ratio
14,B11,1.38 ratio
15,B12,1.27 ratio
16,B13,1.23 ratio
17,B14,1.03 ratio
18,B15,1.26 ratio
19,B16,1.31 ratio
20,B17,1.3 ratio
21,B18,1.31 ratio
22,B19,1.34 ratio
23,B20,0.99 ratio
24,B21,1.35 ratio
25,B22,1.28 ratio
26,B23,0.88 ratio
27,B24,0.46 ratio
28,B25,1.26 ratio
29,B30,0.33 ratio
30,B26,1.1 ratio

# Target: T3, human FcγRIIIA-V158 α subunit extracellular domain-His6-GST fusion (human, UniProt P08637 17-208)
# T3 construct: ECD-6His-GST fusion made in 293 cells; also called FcγRIIIA-Val158; not shown: glutathione S transferase (GST)
# T3 sequence (P08637 other isoform, or with tags, fused parts or gaps, form in doubt): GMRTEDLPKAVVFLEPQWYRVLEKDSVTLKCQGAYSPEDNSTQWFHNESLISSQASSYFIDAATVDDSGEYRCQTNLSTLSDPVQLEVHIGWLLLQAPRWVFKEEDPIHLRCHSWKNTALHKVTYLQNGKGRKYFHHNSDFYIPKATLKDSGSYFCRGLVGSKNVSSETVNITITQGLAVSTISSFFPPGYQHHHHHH
# Test: ELISA, IgG complex, receptor coated
row,Binder,"ratio of binding, variant/native IgG1 (mean)"
1,B1,1.07 ratio
2,B27,0.99 ratio
3,B2,1.02 ratio
4,B28,0.88 ratio
5,B3,1.02 ratio
6,B4,0.64 ratio
7,B5,0.92 ratio
8,B6,1.07 ratio
9,B7,1.25 ratio
10,B8,0.98 ratio
11,B9,0.96 ratio
12,B10,1.19 ratio
13,B29,1 ratio
14,B11,0.96 ratio
15,B12,1.1 ratio
16,B13,1.11 ratio
17,B14,0.96 ratio
18,B15,1.05 ratio
19,B16,0.98 ratio
20,B17,1.17 ratio
21,B18,1.27 ratio
22,B19,1 ratio
23,B20,1 ratio
24,B21,0.99 ratio
25,B22,1.12 ratio
26,B23,0.94 ratio
27,B24,0.88 ratio
28,B25,0.97 ratio
29,B30,0.88 ratio
30,B26,1.05 ratio

# Target: T3, human FcγRIIIA-V158 α subunit …
# Test: ELISA, IgG monomer, receptor coated
row,Binder,"ratio of binding, variant/native IgG1 (mean)"
1,B1,1.6 ratio
2,B27,1.07 ratio
3,B2,1.3 ratio
4,B28,0.81 ratio
5,B3,1.96 ratio
6,B4,0.56 ratio
7,B5,0.83 ratio
8,B6,1.24 ratio
9,B7,1.82 ratio
10,B8,1.5 ratio
11,B9,1.53 ratio
12,B10,1.7 ratio
13,B29,1.7 ratio
14,B11,3.59 ratio
15,B12,1.29 ratio
16,B13,2.29 ratio
17,B14,0.78 ratio
18,B15,1.62 ratio
19,B16,1.72 ratio
20,B17,2.75 ratio
21,B18,1.92 ratio
22,B19,2.89 ratio
23,B20,0.97 ratio
24,B21,2.08 ratio
25,B22,1.13 ratio
26,B23,1.28 ratio
27,B24,1.88 ratio
28,B25,2.06 ratio
29,B30,0.39 ratio
30,B26,1 ratio
